Data: US20130280298A1 (FOLIA BIOTECH, published 2013)

Columns and labels:
[1] = target: T1, influenza A/WSN/33 (H1N1) NP protein (influenza virus A/WSN/33 (H1N1), UniProt P15682 1-498); test: phage display panning (Ph.D.-7) on NP coated on MaxiSorp plates, 5 rounds
T1 construct: also called recombinant NP; rNP

[2] = target: T1, influenza A/WSN/33 (H1N1) NP protein

T1 sequence (P15682 whole entry): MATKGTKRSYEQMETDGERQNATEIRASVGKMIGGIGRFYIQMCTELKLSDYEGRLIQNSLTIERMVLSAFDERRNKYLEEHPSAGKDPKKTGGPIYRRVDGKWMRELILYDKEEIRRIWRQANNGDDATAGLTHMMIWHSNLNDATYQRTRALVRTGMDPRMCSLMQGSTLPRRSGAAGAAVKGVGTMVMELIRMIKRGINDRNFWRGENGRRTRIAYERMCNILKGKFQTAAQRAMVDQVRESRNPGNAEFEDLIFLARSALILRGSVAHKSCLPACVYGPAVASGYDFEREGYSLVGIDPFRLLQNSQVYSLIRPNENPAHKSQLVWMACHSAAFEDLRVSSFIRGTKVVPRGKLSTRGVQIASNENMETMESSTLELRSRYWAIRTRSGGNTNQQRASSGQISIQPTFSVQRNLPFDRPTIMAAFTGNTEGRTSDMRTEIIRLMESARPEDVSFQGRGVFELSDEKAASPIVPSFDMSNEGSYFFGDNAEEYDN

## FHEFWPT (also called ANP1)
[1]
  binding result: binds

B1: PapMV HAV-ANP2 (designed binder)
chain: MASTPNIAFPAITQEQMSSIKVDPTSNLLPSQEQLKSVSTLMVAAKVPAASVTTVALELVNFCYDNGSSAYTTVTGPSSIPEISLAQLASIVKASGTSLRKFCRYFAPIIWNLRTDKMAPANWEASGYKPSAKFAAFDFFDGVENPAAMQPPSGLTRSPTQEERIANATNKQVHLFQAAAQDNNFASNSAFITKGQISGSTPTIQFLPPPETSKVWQIPHTRHHHHHH
[2]
  fold increase of the avidity (OPD, nm) over HAV-ANP 1 and PapMV VLPs: ~5 fold
  fold increase of the signal over PapMV HAV-ANP1 and PapMV VLPs: 5 fold
